Key:
[1] = target: T1, endogenous iRhom2 on THP-1 cells (Homo sapiens, UniProt Q6PJF5); test: FACS binding to THP-1 cells endogenously expressing iRhom2 and iRhom1; settings: antibody at 3 μg/ml
T1 construct: THP-1 cells, a human monocytic cell line endogenously expressing both iRhom2 and iRhom1; host or cells: THP-1
T1 sequence (Q6PJF5 1-856): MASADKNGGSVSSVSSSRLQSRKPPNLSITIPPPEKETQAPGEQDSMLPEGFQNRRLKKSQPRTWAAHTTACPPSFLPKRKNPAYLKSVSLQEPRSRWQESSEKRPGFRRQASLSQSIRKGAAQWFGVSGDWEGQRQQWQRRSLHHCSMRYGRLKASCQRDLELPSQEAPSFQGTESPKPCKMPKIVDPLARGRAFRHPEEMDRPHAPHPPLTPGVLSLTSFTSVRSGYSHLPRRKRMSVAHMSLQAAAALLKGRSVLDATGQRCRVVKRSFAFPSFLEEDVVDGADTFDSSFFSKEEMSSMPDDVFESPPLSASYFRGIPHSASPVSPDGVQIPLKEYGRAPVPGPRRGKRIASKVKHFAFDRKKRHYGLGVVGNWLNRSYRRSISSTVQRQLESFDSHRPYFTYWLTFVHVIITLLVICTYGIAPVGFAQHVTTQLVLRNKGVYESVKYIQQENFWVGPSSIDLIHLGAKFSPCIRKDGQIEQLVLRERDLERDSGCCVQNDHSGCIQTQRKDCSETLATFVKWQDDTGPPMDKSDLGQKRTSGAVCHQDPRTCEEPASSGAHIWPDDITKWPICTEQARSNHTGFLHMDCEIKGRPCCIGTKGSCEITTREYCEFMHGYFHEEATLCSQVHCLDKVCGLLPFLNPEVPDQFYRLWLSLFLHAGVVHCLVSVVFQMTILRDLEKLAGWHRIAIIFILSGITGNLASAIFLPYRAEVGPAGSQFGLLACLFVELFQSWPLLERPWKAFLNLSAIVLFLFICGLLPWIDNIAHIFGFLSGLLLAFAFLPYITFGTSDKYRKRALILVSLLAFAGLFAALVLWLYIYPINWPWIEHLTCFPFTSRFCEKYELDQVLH
Protocol: (§1) In this study, binding specificity analyses of the humanized antibody 42-B-02 as a representative example of the antibodies of the invention in cell lines endogenously expressing iRhom2 were performed. The studies were conducted on RPMI-8226 cells, a human B lymphocytic cell line endogenously expressing iRhom2 but being endogenously negative for iRhom1, on THP-1 cells, a human monocytic cell line endogenously expressing both iRhom2 and iRhom1 and on RH-30 cells, a human […] cell line endogenously negative for iRhom2 but endogenously expressing iRhom1.
(§2) In brief, human RPMI-8226 cells (Deutsche Sammlung von Mikroorganismen und Zellkulturen, Germany), THP-1 cells (American Type Culture Collection, USA) and RH-30 cells (Deutsche Sammlung von Mikroorganismen und Zellkulturen, Germany) were harvested with 10 mM EDTA in PBS, washed and resuspended in FACS buffer (PBS, 3% FBS, 0.05% sodium azide), and seeded in Nunc U-bottom 96-well plates (Thermo Fisher Scientific, USA) at approximately 2×10^5 cells per well. In order to pellet cells and remove supernatants, the plates were centrifuged at 1,500 rpm and 4° C. for 3 minutes. […] Finally, cells were resuspended in 150 μl per well of FACS buffer and analyzed using a BD Accuri™ C6 Plus flow cytometer (Becton Dickinson, Germany).

[2] = tested on: RH-30 cells; test: FACS binding to RH-30 cells endogenously negative for iRhom2; parameters: species or system human; settings: antibody at 3 μg/ml
Protocol: as §1, §2

B1: 42-B-02: humanized antibody binding human iRhom2; HCVD SEQ ID NO 33, LCVD SEQ ID NO 37 (antibody, V domains shown)
VH: QVTLRESGPALVKPTQTLTLTCTFSGFSLSTFGRGVGWIRQPPGKALEWLAHIWWDDEKYYNSALKSRLTISKDTSKNQVVLTITNMDPVDTATYYCARIQNYGSNYWYFDVWGQGTLVTVSS
VL: AIQLTQSPSSLSASVGDRVTITCRASSRISYMFWYQQKPGKAPKVLIYDTSNLASGVPSRFSGSGSGTDYTLTISSLQPEDFATYYCQQWNSYPLTFGQGTKLEIK
modifications: antibody sequences
For B1, the “binding to THP-1 cells (endogenously expressing iRhom2 and iRhom1)” value [1] was “strong binding” and the “binding to RH-30 cells (endogenously negative for iRhom2, expressing iRhom1)” value [2] was “no binding”.
